Reference: PMC10992437, “Engineering a norcoclaurine synthase for one-step synthesis of (S)-1-aryl-tetrahydroisoquinolines” (Bioresources and Bioprocessing, 2023)

Experiments:
[1] = test system: O=Cc1ccccc1; experiment: purified protein; format: biochemical, Thalictrum flavum; settings: co-substrate dopamine (concentration not stated), aldehyde 0.5-50 mM, general assay: HEPES pH 7.5, 20% DMSO, 5 mM ascorbic acid
[2] = test system: O=Cc1ccc(-c2ccccc2)cc1; experiment: purified protein; format: biochemical, Thalictrum flavum; settings: co-substrate dopamine (concentration not stated), aldehyde 0.5-50 mM, general assay: HEPES pH 7.5, 20% DMSO, 5 mM ascorbic acid

Substance | Km [1] [mM] | Km [2] [mM]
TfNCS (norcoclaurine synthase) (Thalictrum flavum subsp. glaucum) | 22.3 ± 6.7 | 15.0 ± 4.6
TfNCS (norcoclaurine synthase) (Thalictrum flavum subsp. glaucum; L68T/M97V) | 20.1 ± 5.3 | 14.6 ± 5.1
